# Assay results reported in publication PMC5983119.
# Assays:
# TDP-43 WT (mouse) = TDP-43 WT (mouse) (UniProt Q921F2); experiment: EMSA; design: unit not given beside the values; conditions: 5% acrylamide gel, protein 0.25-2 ug with 32P RNA in unspecified binding buffer, salt, pH and temperature not given
# [1] = target: TDP-43 M323K (LCDmut) M323K (mouse) (UniProt Q921F2); experiment: EMSA; design: unit not given beside the values; conditions: 5% acrylamide gel, protein 0.25-2 ug with 32P RNA in unspecified binding buffer, salt, pH and temperature not given
sequence,measurement,setting,value
UGUGUGUGUGUG [(UG)6 RNA],Kd,TDP-43 WT (mouse),27600
same,Kd,[1],32200
